{"source": "the DeepSol protein solubility set"}
{"assay": "soluble on expression in E. coli; label from the status in PepcDB or PDB records"}
{"sequence": "MKEKEHQSIEWKESWQDEYLKWICGYANAYGGTIYIGTDDDGNVVGIDNARDLLERIPNKITDTMGIIVDVNLLYKGELEYLQIIVDKYPSLISFRGKYYYRSGSTMREITGKELERALLKTQGRTWDGVPLPKLTVADLKQDAIQLFKDKAVKRGRLTKEEVSVEDTILMDNLHLIDEDGYLIRAAMLAFYKDPEKWVTGSYIKIGYFGKSDSDLVYQDEVHGPLIEQVDKTVDLVYTKYMKALIDYEGVQRIEQFMFHKDAFREILLNAVVHKDYSSCNPIQISVYEDKIYIWNDGEMPPNLDSTDKLFMKHSSKPYNPKLANVFFKSGMIEAWGRGFEKIREACALYDGPLPEYEINEAGIMVLCKACDKYLGLLRNDGQHHGQCDQEGDHDEEQDIMRQIIAFCMEPKTASEIMQKFNLERSYFRRHYLNKMLKTGKLQRTEPDKPKSKNQKYYS", "soluble on expression in E. coli": "not soluble"}
{"sequence": "MGSDKIHHHHHHMKVIIEADGGSRGNPGIAGSGTLIYNADRSQVLKEYSYVVGKATNNVAEYHGLLNGLRGAAELGATEVSVRMDSKLVVEQMSGRWKIKHPDMKELALECKKVASSIGSVSYEWIPRSENSHADALANKAMDALAEGAAVGFLELEEPAAKTDSEEKVVETATSPAVWNGATTQATRFVLLRHGQTAMSAARQYSGRSNPELTSVGLEQARRAAAFIGRRGGIDAIVASPLQRCQQTAHEVSEQLGGMPVRTIDGLIEMDFGQWDGLSFSQAHEADPELHSAWLDDSRTAPPGGESLQQVHRRVKKVREELERKYAGKTIVVVSHVTPIKSILRQALDASASMFHRMHLDLASISVAEFYSDGPTCVRSVNDTHYLYG", "soluble on expression in E. coli": "not soluble"}
{"sequence": "MGSDKIHHHHHHMLMKSSTEQIRRQNSALVLAALRVEQAMSHTQIAAVTGLASATVTAITSELEQAGVIERHEQQIAGARGRPRVALSRRRDFAYVMSVRISSDRLNYTLSDFRGKLMDRFEEPRPLDVSAAGFIEGLGRNLARLASRSKLEPEKVAVLSVSSKGIVDAGGARLLWTPVFGQQPLDLKAALGDFEKAMALLSNETLLVAHGLSRRMDAQDGTFRGLIALSLGHSIGLGIARPMPDGTVAVSAPNFGHMLNTADSKLCRCGARGCIEASAGFYGILRMAFEVRPDTIPAKFVPITEMDKIALSARQGNRMAQYAFRQAGLALGQGLSRVFSLHETLPVTITGPGTRYYDLLAQGLEEGLAQSLQVRLDGAPPISLVGDEADLVQEGHVDHALRAIDERLFGGG", "soluble on expression in E. coli": "not soluble"}
{"sequence": "GPGSMSQEGGKSEPDANEKEQRNQKLRLGLEAMFCAQEIPSEKRTDIESDGEEVPPSITRDEDRYRQVAEAILRIDTKSKIIEINNIRLFSVAEIELDKLTECTSLSLRKNLLHDLIPFPEDLADRLDELDLFDNKIRKLNDFFETVTVPGDPPTTKTLPNAYKCLTKLDLSYNQIREIGGLDSIGGTLRELYLVENKIKEVKNLDSLVNLELLELGGNRLRAIGSGLEKLTKLKQLWLGKNKISSIGTALHKLVSLEILSLQANRITSVDAENFLGAKANPNLREVYLSENGLTSVGNVRHLSTIKIIDFSFNSICSIDAEEINPQTMPKLEEFWLTDGNIADWEEVGKLSGFTSTLKTVYLERNPIEEDKRYRDKVYMYLPFLVQIDSWPIVNKGNLEADRKRKA", "soluble on expression in E. coli": "not soluble"}
{"sequence": "MAHHHHHHSLTTDLPAAYHIEQRAHAFPWSEKTFASNQGERYLNFQLTQNGKMAAFAITQVVLDEATLFNIAVDPDYQRQGLGRALLEHLIDELEKRGVATLWLEVRASNAAAIALYESLGFNEATIRRNYYPTTDGREDAIIMALPISMEG", "soluble on expression in E. coli": "not soluble"}
{"sequence": "MTREIIPILPEAPVETARSGNALPLLREIAEHLHHLLETGEASTIDLSALPLTPGDLEWLRAELGGGEVSVTLHADGASTLDETAFPGVWWIIHRNAQGAVTTQFIEVAFVPELVKSPRADVAAARAALVLRMADL", "soluble on expression in E. coli": "soluble"}
{"sequence": "MKPAYPPLLLQMSPAYTPRPLKNLFTANQCWAHLIEEGGLRDIEVESVTKMLACGTSILGVKHYTCGNHSCPHVKYLCNTCSCRACPSCGKKATDQWIANQQHRLPECTWQHLVFTLPDTLWPLFFHNRHWLDALCRLAVDNLLYAGRRRGVEVGVFCAIHTYGRRLNWHPHIHVSVTLGGIDDAGVWKDLSFHPSALRRRWMWNVRQYLLSQWEHTTVPPENAHLQSENDWRHLVLNAGGQHWHIHLSKKTKNGKKTVNYLGRYLKKPPISGSRLAHYTSGATLSFTYLDHRTKTYQQETLSQTDMLRRVVQHIPEKHFRMIRYFGFLANRVCGRQLPRVYEAIRMERRGKAPKLYFAQMSKAFLHRDPFSCVLCGARMVYTAAIAGLTVQGLINNAQSIAQLRYVPA", "soluble on expression in E. coli": "not soluble"}
{"sequence": "MKVMNIIHDSVVDGEGLRTVVFFAGCPHRCVGCHNPKSWNICNGTEMTVEEIVKEIASNPLTDVTFSSGDPFFQAAEVKKVAKIGKDLKKNLWMYTGYTLEEIQSSQNNDMIELLHYGDVLVDGRFEIEEKDLTLPFRGSSNQRIIRLKELEHHHHHH", "soluble on expression in E. coli": "not soluble"}
{"sequence": "MTKITVLSGKGGTGKTTVSVNMAKALSESYRVQLLDADVEEPNDHIFFNVDVSFEEPVHLMIPVVDNSVCIRCGECASTCQFGAISVFPSGTFVFESLCHGCGACSIMCPVNAISERPKEIGKIRFGTADGNISFGMGILNIGERTGVPVIRKLKKHIDEKADVVIVDAPPGTSCPVVESLRNTDFALLVTEPTAFGLHDLKLAVELTKEMGIPSGIVVNRYIPGNTIIEEFADEEGIPVLLKIPFKREIASLCAEGKLIVEAFQDMKKDFLELFEKIEVMVRLEHHHHHH", "soluble on expression in E. coli": "soluble"}
{"sequence": "MAGIAMKLAKDREAAEGLGSHERAIKYLNQDYETLRNECLEAGALFQDPAFPPVSHSLGFKELGPNSSKTYGIKWKRPTELLSNPQFIVDGATRTDICQGALGDSWLLAAIASLTLNETILHRVVPYGQSFQEGYAGIFHFQLWQFGEWVDVVVDDLLPTKDGKLVFVHSAQGNEFWSALLEKAYAKVNGSYEALSGGCTSEAFEDFTGGVTEWYDLQKAPSDLYQIILKALERGSLLGCSINISDIRDLEAITFKNLVRGHAYSVTDAKQVTYQGQRVNLIRMRNPWGEVEWKGPWSDNSYEWNKVDPYEREQLRVKMEDGEFWMSFRDFIREFTKLEICNLTPDALKSRTLRNWNTTFYEGTWRRGSTAGGCRNYPATFWVNPQFKIRLEEVDDADDYDSRESGCSFLLALMQKHRRRERRFGRDMETIGFAVYQVPRELAGQPVHLKRDFFLANASRAQSEHFINLREVSNRIRLPPGEYIVVPSTFEPNKEGDFLLRFFSEKKAGTQELDDQIQANLPDEKVLSEEEIDDNFKTLFSKLAGDDMEISVKELQTILNRIISKHKDLRTNGFSLESCRSMVNLMDRDGNGKLGLVEFNILWNRIRNYLTIFRKFDLDKSGSMSAYEMRMAIEAAGFKLPCQLHQVIVARFADDELIIDFDNFVRCLVRLEILFKIFKQLDPENTGTIQLDLISWLSFSVLGKLAAAIEHHHHHHMHYSNIEANESEEERQFRKLFVQLAGDDMEVSATELMNILNKVVTRHPDLKTDGFGIDTCRSMVAVMDSDTTGKLGFEEFKYLWNNIKKWQGIYKRFETDRSGTIGSNELPGAFEAAGFHLNQHIYSMIIRRYSDETGNMDFDNFISCLVRLDAMFRAFRSLDKNGTGQIQVNIQEWLQLTMYS", "soluble on expression in E. coli": "soluble"}
{"sequence": "MFDTLTHGELLKKTAMEVEADIAGIHKQIEEISERNEWRVLQSYRKHKVSDTHFTPSTGYGYDDIGRDTLESIYADVFGGEAGLVRPQIISGTHAISIALFGVLRPGDELLYITGKPYDTLEEIVGVRGGENAGSLKDFQIGYNAVDLTKDGKIDYDAVAAAINPKTKVIGIQRSKGYANRPSFLISEIKEMIRFVKEINENLIVFVDNCYGEFVEELEPCHVGADLMAGSLIKNPGGGLAKTGGYLVGKAKWIEACSYRMTSPGIGREAGASLYSLQEMYQGFFLAPHVVSQSLKGAVFTARFLEKLGFTSNPKWDAKRTDLIQSVEFSDGEKMIAFCQAIQFASPIDAHVTPYPAYMPGYEDDVIMAAGTFIQGASIELSADGPIRPPYVAYVQGGLTYSHVKNAICSAVDSLMQKQLILEHHHHHH", "soluble on expression in E. coli": "soluble"}
{"sequence": "MHHHHHHSSGRENLYFQGPPARVRVAVRLRPFVDGTAGASDPPCVRGMDSCSLEIANWRNHQETLKYQFDAFYGERSTQQDIYAGSVQPILRHLLEGQNASVLAYGPTGAGKTHTMLGSPEQPGVIPRALMDLLQLTREEGAEGRPWALSVTMSYLEIYQEKVLDLLDPASGDLVIREDCRGNILIPGLSQKPISSFADFERHFLPASRNRTVGATRLNQRSSRSHAVLLVKVDQRERLAPFRQREGKLYLIDLAGSEDNRRTGNKGLRLKESGAINTSLFVLGKVVDALNQGLPRVPYRDSKLTRLLQDSLGGSAHSILIANIAPERRFYLDTVSALNFAARSKEVINRPFTNESLQPHALGPVKLSQKELLGPPEAK", "soluble on expression in E. coli": "soluble"}
{"sequence": "MGSDKIHHHHHHAEYIHVIPADASAVASINLNSLADKAGLNDKQNEGMKQKMMEALKSGMNAAAFQQLEKIMKNPSQSGIDVKAPVFVFTSKTFISPTIVAKVSNIEDLRASLDLMAKEGICQPIAEEEGYSFTSLQKNNLLVFNENAAVLTEAYGTSQMDVAKQTISTLLKQTEENSIASNGSFRKMQDQKGDINFFASMDAVPKMYTQQISLGLSSQIDLSEVKAVGNLNFEKGKIALQIETYSDNAETDALLKKQAQAVKKLNTTFLQNFPESTLAFLNIGVNGAAFYDLLFNNEEFRRNVSLAKADEVKSLFASFDGDISIGLINVTLNSVPTFAAYADAKNGNALKALYDNKKQLKLGKNEDIIQLGENEYVYKSRATNVFFGIRNKQMYATNDELLYKSISKPVEKSIKDAGYVSDMKGKNVFFVINMDAILDLPVVKMMAGFGGEEYQTYYKLASKISYIEAFSDSEGKTETAILLKNKDDNALKQIVDFAKQFAGM", "soluble on expression in E. coli": "not soluble"}
{"sequence": "MLYINSFLDRMGEIIRGEKSVEEADKLLDQKNIFEMFRSDCEEILNLYKSGKAEKEEVQRNFYLLKTYVVSQLSIHFERLKEFAESKGFKIEKKLDPEVINEIALYIDRVEKEV", "soluble on expression in E. coli": "soluble"}
{"sequence": "MSLKPVGLNYFSEKKGLLTDEDLMEDEHYCGMSFRGDEKKSIFGIFDGYGGIGAARETRRTLPNIIQKLIEQGLDSKEILEKGFSEVDEGMNKEEFMDIGCTCTLIYIWEEDNKVYIRSGNVGDSTCFVKKMNKGKPEIITLSQDHKVTSACEQKRMKEAGITLVEGQKRINGVGVARTLANHFVKNLNIGMIGTPYISPAIVLESGDEIILCSDGIWDVITPEKAFEMMENTQVSEAPKVIMEESMKITECRDNVTVIVVKILEGHHHHHH", "soluble on expression in E. coli": "not soluble"}
{"sequence": "MSSQDVLIHSDDPCHPANLICTLCKQFFHNNWCTGTGGGISIKDPNTNYYYLAPSGVQKEKMIPEDLFVMDAQTLEYLRSPKLYKPSACTPLFLACYQKKNAGAIIHTHSQNAVICSLLFGDEFRIANIEQIKAIPSGKVDPVTKKPMALSFFDTLKIPIIENMAHEDELIDDLHKTFKDYPDTCAVIVRRHGIFVWGPTIDKAKIFNEAIDYLMELAIKMYQMGIPPDCGIGEEKKHLKMASP", "soluble on expression in E. coli": "soluble"}
{"sequence": "MIPVTRMAVGKGTVSTRIKGLRGRRPSSFADILRPVVFWNITRACNLKCIHCYISAGPHPLPGELSTEEALGVARQLVEHGVPLVTLSGGEPLVRRDFWAIAKALSGHDTPKLALSSNGTLITRETAARLRRLGFSYVGISLDSVDPGVHDKFRGAPGAFKAAIRGARNALEEGLDVGFRLTITKYNLDDAPRIIRLASDMGVPRVAIYVVDLLGRATPDLAPSPEDLRRAIDAILEESVRHQDRVEVLLVRANFAGVYLADRLAKTRDEFLQLLSLVGSHGDCGRKSVSIYPDGTVRPCQFLEEVVIGDLRRQRLGEILSADNPLLKPFIAVDTMLRGPKCGGCPFKRVCGGGSRMRALKTTGEFWGDDPLCFIDPWSIARRWGYSAG", "soluble on expression in E. coli": "not soluble"}
{"sequence": "MVNAEEQQYLNLVQYIINHGEDRPDRTGTGTLSVFAPSPLKFSLRNKTFPLLTTKRVFIRGVIEELLWFIRGETDSLKLREKNIHIWDANGSREYLDSIGLTKRQEGDLGPIYGFQWRHFGAEYIDCKTNYIGQGVDQLANIIQKIRTSPYDRRLILSAWNPADLEKMALPPCHMFCQFYVHIPSNNHRPELSCQLYQRSCDMGLGVPFNIASYALLTCMIAHVCDLDPGDFIHVMGDCHIYKDHIEALQQQLTRSPRPFPTLSLNRSITDIEDFTLDDFNIQNYHPYETIKMKMSI", "soluble on expression in E. coli": "soluble"}
